Assay results: patent US20240425606A1, “ANTI-IL-11RA ANTIBODIES” (Lassen Therapeutics 1, Inc., priority 2021, published 2024)

T1: hIL-1 IR (Homo sapiens, UniProt Q14626)
T1 sequence (Q14626 23-422): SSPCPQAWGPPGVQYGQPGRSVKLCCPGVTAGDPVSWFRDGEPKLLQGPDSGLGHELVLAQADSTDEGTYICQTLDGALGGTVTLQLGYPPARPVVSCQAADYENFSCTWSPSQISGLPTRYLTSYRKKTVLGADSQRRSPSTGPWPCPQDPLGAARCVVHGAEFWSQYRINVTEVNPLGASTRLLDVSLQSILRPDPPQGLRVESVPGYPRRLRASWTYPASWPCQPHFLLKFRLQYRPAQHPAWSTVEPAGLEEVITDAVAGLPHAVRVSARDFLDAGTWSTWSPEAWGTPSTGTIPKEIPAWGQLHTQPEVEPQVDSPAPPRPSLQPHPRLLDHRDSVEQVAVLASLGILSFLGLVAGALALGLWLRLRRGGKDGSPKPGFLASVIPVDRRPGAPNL

B1: mAb20: anti-IL-11Rα antibody; VH SEQ ID NO: 231, VL SEQ ID NO: 232; heavy chain Kabat position 31 variant of mAb5 (antibody, V domains shown)
VH: EVQLLESGGGLVQPGGSLRLSCAASGFTFSGYSMTWVRQAPGKGLEWVSSIVPYGDLTQYADSVKGRFTISRDNSKNTLYLQMNSLRAEDTAVYYCAKGPGWGSFDLWGRGTLVTVSS
VL: DIQMTQSPSSLSASVGDRVTITCQASQDINNYLNWYQQKPGKAPKLLIYDASNLQTGVPSRFSGSGSGTDFTFTISSLQPEDIATYYCQQHESQSPTFGPGTKVDIK
modifications: mAb20 VH Chain; mAb20 VL Chain
notes: anti-IL-11Rα antibody; heavy chain Kabat position 31 variant of mAb5
B2: mAb16: anti-IL-11Rα antibody; VH SEQ ID NO: 223, VL SEQ ID NO: 224; heavy chain Kabat position 31 variant of mAb5 (antibody, V domains shown)
VH: EVQLLESGGGLVQPGGSLRLSCAASGFTFSAYSMTWVRQAPGKGLEWVSSIVPYGDLTQYADSVKGRFTISRDNSKNTLYLQMNSLRAEDTAVYYCAKGPGWGSFDLWGRGTLVTVSS
VL: DIQMTQSPSSLSASVGDRVTITCQASQDINNYLNWYQQKPGKAPKLLIYDASNLQTGVPSRFSGSGSGTDFTFTISSLQPEDIATYYCQQHESQSPTFGPGTKVDIK
modifications: mAb16 VH Chain; mAb16 VL Chain
notes: as for B1
B3: mAb19: anti-IL-11Rα antibody; VH SEQ ID NO: 229, VL SEQ ID NO: 230; heavy chain Kabat position 31 variant of mAb5 (antibody, V domains shown)
VH: EVQLLESGGGLVQPGGSLRLSCAASGFTFSFYSMTWVRQAPGKGLEWVSSIVPYGDLTQYADSVKGRFTISRDNSKNTLYLQMNSLRAEDTAVYYCAKGPGWGSFDLWGRGTLVTVSS
VL: DIQMTQSPSSLSASVGDRVTITCQASQDINNYLNWYQQKPGKAPKLLIYDASNLQTGVPSRFSGSGSGTDFTFTISSLQPEDIATYYCQQHESQSPTFGPGTKVDIK
modifications: mAb19 VH Chain; mAb19 VL Chain
notes: as for B1
B4: mAb32: anti-IL-11Rα antibody; VH SEQ ID NO: 255, VL SEQ ID NO: 256; heavy chain Kabat position 31 variant of mAb5 (antibody, V domains shown)
VH: EVQLLESGGGLVQPGGSLRLSCAASGFTFSYYSMTWVRQAPGKGLEWVSSIVPYGDLTQYADSVKGRFTISRDNSKNTLYLQMNSLRAEDTAVYYCAKGPGWGSFDLWGRGTLVTVSS
VL: DIQMTQSPSSLSASVGDRVTITCQASQDINNYLNWYQQKPGKAPKLLIYDASNLQTGVPSRFSGSGSGTDFTFTISSLQPEDIATYYCQQHESQSPTFGPGTKVDIK
modifications: mAb32 VH Chain; mAb32 VL Chain
notes: as for B1
B5: mAb22: anti-IL-11Rα antibody; VH SEQ ID NO: 235, VL SEQ ID NO: 236; heavy chain Kabat position 31 variant of mAb5 (antibody, V domains shown)
VH: EVQLLESGGGLVQPGGSLRLSCAASGFTFSIYSMTWVRQAPGKGLEWVSSIVPYGDLTQYADSVKGRFTISRDNSKNTLYLQMNSLRAEDTAVYYCAKGPGWGSFDLWGRGTLVTVSS
VL: DIQMTQSPSSLSASVGDRVTITCQASQDINNYLNWYQQKPGKAPKLLIYDASNLQTGVPSRFSGSGSGTDFTFTISSLQPEDIATYYCQQHESQSPTFGPGTKVDIK
modifications: mAb22 VH Chain; mAb22 VL Chain
notes: as for B1
B6: mAb24: anti-IL-11Rα antibody; VH SEQ ID NO: 239, VL SEQ ID NO: 240; heavy chain Kabat position 31 variant of mAb5 (antibody, V domains shown)
VH: EVQLLESGGGLVQPGGSLRLSCAASGFTFSLYSMTWVRQAPGKGLEWVSSIVPYGDLTQYADSVKGRFTISRDNSKNTLYLQMNSLRAEDTAVYYCAKGPGWGSFDLWGRGTLVTVSS
VL: DIQMTQSPSSLSASVGDRVTITCQASQDINNYLNWYQQKPGKAPKLLIYDASNLQTGVPSRFSGSGSGTDFTFTISSLQPEDIATYYCQQHESQSPTFGPGTKVDIK
modifications: mAb24 VH Chain; mAb24 VL Chain
notes: as for B1
B7: mAb27: anti-IL-11Rα antibody; VH SEQ ID NO: 245, VL SEQ ID NO: 246; heavy chain Kabat position 31 variant of mAb5 (antibody, V domains shown)
VH: EVQLLESGGGLVQPGGSLRLSCAASGFTFSPYSMTWVRQAPGKGLEWVSSIVPYGDLTQYADSVKGRFTISRDNSKNTLYLQMNSLRAEDTAVYYCAKGPGWGSFDLWGRGTLVTVSS
VL: DIQMTQSPSSLSASVGDRVTITCQASQDINNYLNWYQQKPGKAPKLLIYDASNLQTGVPSRFSGSGSGTDFTFTISSLQPEDIATYYCQQHESQSPTFGPGTKVDIK
modifications: mAb27 VH Chain; mAb27 VL Chain
notes: as for B1
B8: mAb25: anti-IL-11Rα antibody; VH SEQ ID NO: 241, VL SEQ ID NO: 242; heavy chain Kabat position 31 variant of mAb5 (antibody, V domains shown)
VH: EVQLLESGGGLVQPGGSLRLSCAASGFTFSMYSMTWVRQAPGKGLEWVSSIVPYGDLTQYADSVKGRFTISRDNSKNTLYLQMNSLRAEDTAVYYCAKGPGWGSFDLWGRGTLVTVSS
VL: DIQMTQSPSSLSASVGDRVTITCQASQDINNYLNWYQQKPGKAPKLLIYDASNLQTGVPSRFSGSGSGTDFTFTISSLQPEDIATYYCQQHESQSPTFGPGTKVDIK
modifications: mAb25 VH Chain; mAb25 VL Chain
notes: as for B1
B9: mAb18: anti-IL-11Rα antibody; VH SEQ ID NO: 227, VL SEQ ID NO: 228; heavy chain Kabat position 31 variant of mAb5 (antibody, V domains shown)
VH: EVQLLESGGGLVQPGGSLRLSCAASGFTFSEYSMTWVRQAPGKGLEWVSSIVPYGDLTQYADSVKGRFTISRDNSKNTLYLQMNSLRAEDTAVYYCAKGPGWGSFDLWGRGTLVTVSS
VL: DIQMTQSPSSLSASVGDRVTITCQASQDINNYLNWYQQKPGKAPKLLIYDASNLQTGVPSRFSGSGSGTDFTFTISSLQPEDIATYYCQQHESQSPTFGPGTKVDIK
modifications: mAb18 VH Chain; mAb18 VL Chain
notes: as for B1
B10: mAb17: anti-IL-11Rα antibody; VH SEQ ID NO: 225, VL SEQ ID NO: 226; heavy chain Kabat position 31 variant of mAb5 (antibody, V domains shown)
VH: EVQLLESGGGLVQPGGSLRLSCAASGFTFSDYSMTWVRQAPGKGLEWVSSIVPYGDLTQYADSVKGRFTISRDNSKNTLYLQMNSLRAEDTAVYYCAKGPGWGSFDLWGRGTLVTVSS
VL: DIQMTQSPSSLSASVGDRVTITCQASQDINNYLNWYQQKPGKAPKLLIYDASNLQTGVPSRFSGSGSGTDFTFTISSLQPEDIATYYCQQHESQSPTFGPGTKVDIK
modifications: mAb17 VH Chain; mAb17 VL Chain
notes: as for B1
B11: mAb28: anti-IL-11Rα antibody; VH SEQ ID NO: 247, VL SEQ ID NO: 248; heavy chain Kabat position 31 variant of mAb5 (antibody, V domains shown)
VH: EVQLLESGGGLVQPGGSLRLSCAASGFTFSRYSMTWVRQAPGKGLEWVSSIVPYGDLTQYADSVKGRFTISRDNSKNTLYLQMNSLRAEDTAVYYCAKGPGWGSFDLWGRGTLVTVSS
VL: DIQMTQSPSSLSASVGDRVTITCQASQDINNYLNWYQQKPGKAPKLLIYDASNLQTGVPSRFSGSGSGTDFTFTISSLQPEDIATYYCQQHESQSPTFGPGTKVDIK
modifications: mAb28 VH Chain; mAb28 VL Chain
notes: as for B1
B12: mAb26: anti-IL-11Rα antibody; VH SEQ ID NO: 243, VL SEQ ID NO: 244; heavy chain Kabat position 31 variant of mAb5 (antibody, V domains shown)
VH: EVQLLESGGGLVQPGGSLRLSCAASGFTFSNYSMTWVRQAPGKGLEWVSSIVPYGDLTQYADSVKGRFTISRDNSKNTLYLQMNSLRAEDTAVYYCAKGPGWGSFDLWGRGTLVTVSS
VL: DIQMTQSPSSLSASVGDRVTITCQASQDINNYLNWYQQKPGKAPKLLIYDASNLQTGVPSRFSGSGSGTDFTFTISSLQPEDIATYYCQQHESQSPTFGPGTKVDIK
modifications: mAb23 VH Chain; mAb26 VL Chaim
notes: as for B1
B13: mAb30: anti-IL-11Rα antibody; VH SEQ ID NO: 251, VL SEQ ID NO: 252; heavy chain Kabat position 31 variant of mAb5 (antibody, V domains shown)
VH: EVQLLESGGGLVQPGGSLRLSCAASGFTFSTYSMTWVRQAPGKGLEWVSSIVPYGDLTQYADSVKGRFTISRDNSKNTLYLQMNSLRAEDTAVYYCAKGPGWGSFDLWGRGTLVTVSS
VL: DIQMTQSPSSLSASVGDRVTITCQASQDINNYLNWYQQKPGKAPKLLIYDASNLQTGVPSRFSGSGSGTDFTFTISSLQPEDIATYYCQQHESQSPTFGPGTKVDIK
modifications: mAb30 VH Chain; mAb30 VL Chain
notes: as for B1

Target: T1, hIL-1 IR
Assay: Alternate biolayer interferometry assay (AHC biosensors) ranking mAbs 16-32 against mAb5
Format: binding
Conditions: compared to mAb5
From the text: A further series of antibodies were designed in which the residue at Kabat position 31 of the heavy chain was varied (mAbs 16-32). In this case an alternate biolayer interferometry assay was used to initially rank the antibodies compared to mAb5, the closest relative in sequence to mAbs 16-32. MAbs were loaded onto anti-human constant domain (AHC) biosensors (FortdBio) in 10× kinetics buffer consisting of PBS, 0.1% BSA, 0.02% Tween 20 for 120 s to achieve a spectral shift value of 0.8 to 1.2 nm. Association was carried out in the presence of 2-fold dilution series of hIL-1 IR and was allowed to proceed for 120 s. Dilution series started 10 nM. The dissociation in 10× kinetics buffer for 1200 s. Binding kinetic measurements were taken on an Octet RED96e instrument.

For B1, which qualitative assessment is on record?
Its qualitative assessment is “similar”.

B2 was tested. Which qualitative assessment did it give?
The qualitative assessment was “similar”.

For B3, which qualitative assessment is on record?
Its qualitative assessment is “similar”.

For B4, which qualitative assessment is on record?
Its qualitative assessment is “similar”.

How did the qualitative assessment turn out when B5 was run?
The qualitative assessment was “similar”.

For B6, which qualitative assessment is on record?
The qualitative assessment was “similar”.

For B7, which qualitative assessment is on record?
The qualitative assessment was “decreased”.

With B8 as the molecule, how does the qualitative assessment read?
The qualitative assessment was “similar”.

Which qualitative assessment does the source give for B9 here?
Its qualitative assessment is “decreased”.

How did the qualitative assessment turn out when B10 was run?
The qualitative assessment was “decreased”.

How did the qualitative assessment turn out when B11 was run?
Its qualitative assessment is “similar”.

For B12, which qualitative assessment is on record?
The qualitative assessment was “decreased”.

Which qualitative assessment does the source give for B13 here?
The qualitative assessment was “decreased”.
